# Measurements from IntAct's records for PubMed 23770679.
# B1: Microtubule protein alp7 (Schizosaccharomyces pombe (strain ATCC 38366 / 972)), Q9URY2 (parent)
# chain: MSDIVSSSTDYSRRSPSSSSIGTNETDHTGFHEKRQGASSESLIPPAQRSSEESMPAPKLFPKLTSKPNPQLNLKDTLNKRVSDRLQALELNKSFDFSGTPRPMHPISHPLSQHKTPEFKHRKRNVESILTPKNPSLFSSSNAASQRGSLNTAPSNFAYSHSSSLQTSASSRPPVLSNGSFPRQTNTAPLNPPVHLKDNIRNSATPSTSQADIPTQYPINSTQKQQAKYEAEIEGYKAKLAGTYHEISVLQNTIVNVSGQLIAVNDQLQQLRSGKASTSPSTKDTNMRLVEGHNEETLALQRGKYTQEEVDKLIQERMEKVAEDLHAQYSAKHTQKINAFKANYARKYEATIQELQNQIGTAPNAPKISNSNWEEERRALKADNQTLQKQLEKAIQERQDMSDFLNNFKADMAKSDKLLMQQQSQQTGDLETLRLQLQALQEELRVEREERQQLIQMSEDLVIAMDQLNLEQKS
# partner: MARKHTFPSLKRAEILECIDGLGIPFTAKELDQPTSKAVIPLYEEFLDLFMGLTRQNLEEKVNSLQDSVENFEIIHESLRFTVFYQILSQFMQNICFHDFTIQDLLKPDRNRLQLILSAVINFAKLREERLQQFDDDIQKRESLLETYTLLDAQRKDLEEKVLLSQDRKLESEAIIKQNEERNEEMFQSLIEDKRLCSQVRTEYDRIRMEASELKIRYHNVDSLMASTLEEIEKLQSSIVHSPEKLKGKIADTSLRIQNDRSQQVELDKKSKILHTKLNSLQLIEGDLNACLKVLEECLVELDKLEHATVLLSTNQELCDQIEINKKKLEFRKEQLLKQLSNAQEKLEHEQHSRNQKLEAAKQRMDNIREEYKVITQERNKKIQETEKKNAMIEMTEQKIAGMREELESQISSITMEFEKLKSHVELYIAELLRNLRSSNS
# B2: Microtubule protein alp7 (Schizosaccharomyces pombe (strain ATCC 38366 / 972)), Q9URY2 (parent)
# chain: B1 chain
# partner: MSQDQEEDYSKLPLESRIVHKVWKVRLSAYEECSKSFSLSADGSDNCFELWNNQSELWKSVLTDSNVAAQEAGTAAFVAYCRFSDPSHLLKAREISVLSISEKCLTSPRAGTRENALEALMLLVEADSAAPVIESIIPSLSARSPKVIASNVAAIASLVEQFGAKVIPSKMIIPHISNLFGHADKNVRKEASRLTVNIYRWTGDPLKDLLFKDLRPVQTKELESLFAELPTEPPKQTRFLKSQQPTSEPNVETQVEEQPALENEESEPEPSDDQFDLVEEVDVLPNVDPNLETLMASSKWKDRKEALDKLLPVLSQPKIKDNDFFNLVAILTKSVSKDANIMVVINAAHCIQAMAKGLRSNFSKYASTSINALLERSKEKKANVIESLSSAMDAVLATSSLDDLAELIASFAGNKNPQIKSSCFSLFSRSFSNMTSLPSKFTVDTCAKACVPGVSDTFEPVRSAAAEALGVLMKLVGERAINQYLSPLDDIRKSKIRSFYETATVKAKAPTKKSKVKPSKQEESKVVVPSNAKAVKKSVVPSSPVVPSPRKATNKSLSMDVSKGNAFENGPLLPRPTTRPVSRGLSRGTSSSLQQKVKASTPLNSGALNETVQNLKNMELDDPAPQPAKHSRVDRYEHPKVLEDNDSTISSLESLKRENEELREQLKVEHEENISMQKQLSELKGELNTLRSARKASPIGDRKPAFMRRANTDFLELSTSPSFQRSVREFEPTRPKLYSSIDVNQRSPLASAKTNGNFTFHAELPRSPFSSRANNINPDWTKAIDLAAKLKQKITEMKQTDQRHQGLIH
# Variants of: B1
# Details: with nuf2_schpo nuf2, Q10173
row,Variant,effect of a mutation on the interaction
1,MSDIVSSSTDYSRRSPSSSSIGTNETDHTGFHEKRQGASSESLIPPAQRSSEESMPAPKLFPKLTSKPNPQLNLKDTLNKRVSDRLQALELNKSFDFSGTPRPMHPISHPLSQHKTPEFKHRKRNVESILTPKNPSLFSSSNAASQRGSLNTAPSNFAYSHSSSLQTSASSRPPVLSNGSFPRQTNTAPLNPPVHLKDNIRNSATPSTSQADIPTQYPINSTQKQQAKYEAEIEGYKAKLAGTYHEIAVLQNTIVNVSGQLIAVNDQLQQLRSGKASTSPSTKDTNMRLVEGHNEEALALQRGKYTQEEVDKLIQERMEKVAEDLHAQYSAKHTQKINAFKANYARKYEAAIQELQNQIGTAPNAPKISNSNWEEERRALKADNQTLQKQLEKAIQERQDMADFLNNFKADMAKSDKLLMQQQSQQTGDLETLRLQLQALQEELRVEREERQQLIQMSEDLVIAMDQLNLEQKS [S248A;T297A;T351A;S402A],disrupting interaction strength

# Variants of: B2
# Details: with alp14_schpo alp14, O94534
row,Variant,effect of a mutation on the interaction
1,MSDIVSSSTDYSRRSPSSSSIGTNETDHTGFHEKRQGASSESLIPPAQRSSEESMPAPKLFPKLTSKPNPQLNLKDTLNKRVSDRLQALELNKSFDFSGTPRPMHPISHPLSQHKTPEFKHRKRNVESILTPKNPSLFSSSNAASQRGSLNTAPSNFAYSHSSSLQTSASSRPPVLSNGSFPRQTNTAPLNPPVHLKDNIRNSATPSTSQADIPTQYPINSTQKQQAKYEAEIEGYKAKLAGTYHEISVLQNTIVNVSGQLIAVNDQLQQLRSGKASTSPSTKDTNMRLVEGHNEETLALQRGKYTQEEVDKLIQERMEKVAEDLHAQYSAKHTQKINAFKANYARKYEATIQELQNQIGTAPNAPKISNSNWEEERRALKADNQTLQKQLEKAIQERQDMSDFLNNFKADMAKSDKLLMQQQSQQTGDLETLRLQLQALQEELRVEREERQQLIQMSEDAVIAMDQLNLEQKS [L461A],disrupting interaction strength
